Assay results published in patent publication US20250313641A1.

Target: cynomolgus monkey IL-2 receptor (IL-2R) on cyno PBMC subsets (cynomolgus monkey) (UniProt Q38J85)
Test: cell-based or functional assay

Sequence of cynomolgus monkey IL-2 receptor (IL-2R) on cyno PBMC subsets (cynomolgus monkey) (Q38J85 27-551, chain 1 of 2): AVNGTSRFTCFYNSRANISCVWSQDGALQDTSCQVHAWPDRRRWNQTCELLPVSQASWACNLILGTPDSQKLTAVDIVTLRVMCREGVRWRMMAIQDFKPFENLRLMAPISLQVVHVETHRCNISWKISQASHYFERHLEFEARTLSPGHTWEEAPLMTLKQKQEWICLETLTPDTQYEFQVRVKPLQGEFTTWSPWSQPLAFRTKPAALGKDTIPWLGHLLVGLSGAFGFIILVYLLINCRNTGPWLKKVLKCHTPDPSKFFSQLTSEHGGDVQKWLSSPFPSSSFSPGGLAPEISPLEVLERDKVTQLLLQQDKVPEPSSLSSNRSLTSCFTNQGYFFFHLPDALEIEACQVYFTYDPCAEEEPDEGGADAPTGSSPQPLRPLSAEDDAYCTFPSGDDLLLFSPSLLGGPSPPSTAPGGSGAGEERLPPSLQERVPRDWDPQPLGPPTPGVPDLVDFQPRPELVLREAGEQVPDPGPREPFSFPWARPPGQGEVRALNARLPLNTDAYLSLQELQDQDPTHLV
Sequence of cynomolgus monkey IL-2 receptor (IL-2R) on cyno PBMC subsets (cynomolgus monkey) (chain, as listed by the source, chain 2 of 2): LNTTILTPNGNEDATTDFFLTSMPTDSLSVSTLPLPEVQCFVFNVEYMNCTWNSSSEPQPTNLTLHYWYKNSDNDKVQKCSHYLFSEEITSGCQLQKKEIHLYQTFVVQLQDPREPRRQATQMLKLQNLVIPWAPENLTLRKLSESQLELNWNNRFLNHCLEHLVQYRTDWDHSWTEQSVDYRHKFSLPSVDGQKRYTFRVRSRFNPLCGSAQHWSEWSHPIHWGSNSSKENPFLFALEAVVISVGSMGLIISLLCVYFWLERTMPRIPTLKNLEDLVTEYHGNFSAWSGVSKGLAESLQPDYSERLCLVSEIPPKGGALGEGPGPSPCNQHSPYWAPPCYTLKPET

Ki67 (Cyno) EC50 [nM], CD4^+ T cells: 0.01 nM
Ki67 (Cyno) EC50 [nM], CD8^+ T cells: 0.05 nM
Ki67 (Cyno) EC50 [nM], T-regs: 0.009 nM
Ki67 (Cyno) Emax (%), CD4^+ T cells: 90%
Ki67 (Cyno) Emax (%), CD8^+ T cells: 88%
Ki67 (Cyno) Emax (%), NK cells: 92%
Ki67 (Cyno) Emax (%), T-regs: 69%
Substance: Recombinant human IL-2 (from UniProt P60568 21-153) (ligand)
